Measurements published in article PMC12273628, “In vitro reconstitution of a minimal human centrosome scaffold capable of forming and clustering microtubule asters” (Journal of Cell Science, 2025).

B1: mCherry::HSET, full length, wild type (natural protein, human, UniProt Q9BW19 1-673, looked up)
chain: MDPQRSPLLEVKGNIELKRPLIKAPSQLPLSGSRLKRRPDQMEDGLEPEKKRTRGLGATTKITTSHPRVPSLTTVPQTQGQTTAQKVSKKTGPRCSTAIATGLKNQKPVPAVPVQKSGTSGVPPMAGGKKPSKRPAWDLKGQLCDLNAELKRCRERTQTLDQENQQLQDQLRDAQQQVKALGTERTTLEGHLAKVQAQAEQGQQELKNLRACVLELEERLSTQEGLVQELQKKQVELQEERRGLMSQLEEKERRLQTSEAALSSSQAEVASLRQETVAQAALLTEREERLHGLEMERRRLHNQLQELKGNIRVFCRVRPVLPGEPTPPPGLLLFPSGPGGPSDPPTRLSLSRSDERRGTLSGAPAPPTRHDFSFDRVFPPGSGQDEVFEEIAMLVQSALDGYPVCIFAYGQTGSGKTFTMEGGPGGDPQLEGLIPRALRHLFSVAQELSGQGWTYSFVASYVEIYNETVRDLLATGTRKGQGGECEIRRAGPGSEELTVTNARYVPVSCEKEVDALLHLARQNRAVARTAQNERSSRSHSVFQLQISGEHSSRGLQCGAPLSLVDLAGSERLDPGLALGPGERERLRETQAINSSLSTLGLVIMALSNKESHVPYRNSKLTYLLQNSLGGSAKMLMFVNISPLEENVSESLNSLRFASKVNQCVIGTAQANRK
notes: HSET (KifC1), kinesin-14 family motor, human, full length; also called KifC1; mCherry::HSET(WT); source: SF9 insect cells (baculovirus), purified (Ni-NTA)

What was measured:
[1] = target: GFP::CDK5RAP2 isoform B, full length, wild type (assembled into micron-scale scaffolds with anti-CM2 IgM) (human) (UniProt Q96SN8); assay: partitioning into in vitro scaffolds (confocal fluorescence microscopy); 4-component asters: 167 nM GFP::CDK5RAP2, 33 nM mBFP::γ-TuRCs, 33 nM mCherry::HSET, 13 µM HiLyte-647-labeled α/β-tubulin; 50 mM KCl, 25 mM HEPES pH 7.4, IgM+; compared with 3-component reactions without HSET
[2] = target: T1, GFP::CDK5RAP2 isoform B, full length, wild type (assembled into micron-scale scaffolds with anti-CM2 IgM) (human, UniProt Q96SN8-4 1-1814); assay: partitioning into in vitro scaffolds (confocal fluorescence microscopy); 120 nM GFP::CDK5RAP2 assembled with anti-CM2 IgM, 50 nM mCherry, mCherry::HSET or mCherry::HSET(ΔIDR); 50 mM KCl, 25 mM HEPES; partition coefficient of mCherry signal; conditions: both partners purified
T1 construct: CDK5RAP2 (CEP215) isoform B, human, Protein ID Q96SN8-4, lacking a.a; 1576-1654 of the longest isoform; full length; In the assays the protein stood as micron-scale assemblies nucleated by an anti-CM2 IgM; also called CEP215; GFP::CDK5RAP2(WT); source: SF9 insect cells (baculovirus), purified (MBP selector beads, PreScission cleavage, Ni-NTA to remove the protease)
T1 sequence (Q96SN8 other isoform, or with tags, fused parts or gaps): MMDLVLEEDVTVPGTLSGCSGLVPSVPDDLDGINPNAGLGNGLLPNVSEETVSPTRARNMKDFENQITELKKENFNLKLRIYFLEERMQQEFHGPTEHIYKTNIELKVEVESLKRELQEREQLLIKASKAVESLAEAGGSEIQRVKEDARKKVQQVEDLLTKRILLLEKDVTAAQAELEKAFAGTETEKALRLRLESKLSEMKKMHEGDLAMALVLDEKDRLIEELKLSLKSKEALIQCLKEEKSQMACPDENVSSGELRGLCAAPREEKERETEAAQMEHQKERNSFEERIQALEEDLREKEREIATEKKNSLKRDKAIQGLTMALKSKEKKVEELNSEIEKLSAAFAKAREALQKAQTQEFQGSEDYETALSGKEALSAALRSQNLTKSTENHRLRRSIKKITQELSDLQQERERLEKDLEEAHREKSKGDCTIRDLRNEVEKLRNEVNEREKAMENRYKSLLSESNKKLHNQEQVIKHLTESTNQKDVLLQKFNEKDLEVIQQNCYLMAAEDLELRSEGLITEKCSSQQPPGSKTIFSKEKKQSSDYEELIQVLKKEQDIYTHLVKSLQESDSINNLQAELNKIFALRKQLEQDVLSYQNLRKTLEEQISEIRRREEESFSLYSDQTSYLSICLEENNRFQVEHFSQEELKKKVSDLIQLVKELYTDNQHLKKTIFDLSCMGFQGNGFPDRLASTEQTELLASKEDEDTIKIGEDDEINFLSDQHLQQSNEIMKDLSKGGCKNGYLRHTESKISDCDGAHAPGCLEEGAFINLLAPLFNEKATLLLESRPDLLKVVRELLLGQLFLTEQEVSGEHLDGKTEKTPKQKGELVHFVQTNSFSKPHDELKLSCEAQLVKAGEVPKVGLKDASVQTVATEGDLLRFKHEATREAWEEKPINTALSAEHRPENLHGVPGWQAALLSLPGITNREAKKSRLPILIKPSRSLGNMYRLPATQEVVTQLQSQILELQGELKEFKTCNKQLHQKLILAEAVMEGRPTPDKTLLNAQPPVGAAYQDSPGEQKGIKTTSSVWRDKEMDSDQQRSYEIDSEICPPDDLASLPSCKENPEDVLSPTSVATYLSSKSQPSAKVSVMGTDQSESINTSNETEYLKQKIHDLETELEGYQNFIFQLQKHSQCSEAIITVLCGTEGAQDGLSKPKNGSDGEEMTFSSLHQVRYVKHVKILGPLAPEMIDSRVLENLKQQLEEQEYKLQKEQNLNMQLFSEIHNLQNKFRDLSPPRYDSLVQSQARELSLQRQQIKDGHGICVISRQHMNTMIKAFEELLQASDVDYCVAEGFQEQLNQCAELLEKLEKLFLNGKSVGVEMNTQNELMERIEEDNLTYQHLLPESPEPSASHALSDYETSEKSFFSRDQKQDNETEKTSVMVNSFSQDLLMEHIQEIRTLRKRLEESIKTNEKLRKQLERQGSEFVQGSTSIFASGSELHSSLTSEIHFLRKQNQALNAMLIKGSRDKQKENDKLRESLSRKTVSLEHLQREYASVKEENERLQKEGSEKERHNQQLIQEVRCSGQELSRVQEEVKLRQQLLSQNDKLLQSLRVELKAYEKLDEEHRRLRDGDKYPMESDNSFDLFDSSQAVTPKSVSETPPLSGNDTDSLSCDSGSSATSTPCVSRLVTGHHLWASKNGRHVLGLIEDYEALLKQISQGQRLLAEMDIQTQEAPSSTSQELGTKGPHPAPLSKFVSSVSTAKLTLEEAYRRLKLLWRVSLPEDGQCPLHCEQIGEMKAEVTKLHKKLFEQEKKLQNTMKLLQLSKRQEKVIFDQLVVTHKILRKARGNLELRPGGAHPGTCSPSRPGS

GFP::CDK5RAP2 isoform B, full length, wild type (assembled into micron-scale scaffolds with anti-CM2 IgM) (human), sequence (Q96SN8 other isoform, or with tags, fused parts or gaps): as above

Molecule | fold more γ-TuRC recruited with mCherry::HSET than without [1] [fold] | binding result [2]
human γ-tubulin ring complex tagged with blue fluorescent protein (mBFP::γ-TuRC) (from UniProt P23258 1-451) | 1.4 | 
B1 |  | binds
